# Where “and” joins values, the source holds several entries; their conditions need not be identical. Identical values can stand only once.
# B1: Archaeoglobus fulgidus Rio1 kinase Y200D mutant (enzyme, UniProt O28471 1-258, looked up)
# chain: MKDLKKIESYLDKLRIKEKDGEERKIYAEVLDGRTLKTLYKLSAKGYITAMGGVISTGKEANVFYADGVFDGKPVAMAVKIYRIETSEFDKMDEYLYGDERFDMRRISPKEKVFIWTEKEFRNLERAKEAGVSVPQPYTYMKNVLLMEFIGEDELPAPTLVELGRELKELDVEGIFNDVVENVKRLYQEAELVHADLSEDNIMYIDKVYFIDMGQAVTLRHPMAESYLERDVRNIIRFFSKYGVKADFEEMLKEVKGE
# notes: Rio1 kinase of Archaeoglobus fulgidus, full length, with Tyr 200 mutated to Asp; also called afRio1 Y200D; afRio1Y200D
# B2: human Rio1 kinase, residues 106 to 494, unphosphorylated (domain or fragment, UniProt Q9BRS2 106-494, looked up)
# chain: STPADKVLRKFENKINLDKLNVTDSVINKVTEKSRQKEADMYRIKDKADRATVEQVLDPRTRMILFKMLTRGIITEINGCISTGKEANVYHASTANGESRAIKIYKTSILVFKDRDKYVSGEFRFRHGYCKGNPRKMVKTWAEKEMRNLIRLNTAEIPCPEPIMLRSHVLVMSFIGKDDMPAPLLKNVQLSESKARELYLQVIQYMRRMYQDARLVHADLSEFNMLYHGGGVYIIDVSQSVEHDHPHALEFLRKDCANVNDFFMRHSVAVMTVRELFEFVTDPSITHENMDAYLSKAMEIASQRTKEERSSQDHVDEEVFKRAYIPRTLNEVKNYERDMDIIMKLKEEDMAMNAQQDNILYQTVTGLKKDLSGVQKVPALLENQVEERT
# notes: Rio1 kinase, human, residues 106 to 494; monomer MW 45.1 kDa as printed; also called hRio1; unphosphorylated hRio1; source: size exclusion; purified in the presence of 1 mM adenosine to prevent autophosphorylation
# B3: autophosphorylated human Rio1 kinase, residues 106 to 494 (domain or fragment, UniProt Q9BRS2 106-494, looked up)
# chain: B2 chain
# modifications: autophosphorylated; site not given
# notes: Rio1 kinase, human, residues 106 to 494, autophosphorylated; Same construct as m4, autophosphorylated in vitro; also called phosphorylated hRio1; autophosphorylated hRio1; source: purified hRio1 incubated at 25°C for 1 hr in 50 mM Tris pH 8.0, 200 mM NaCl, 2 mM MgCl2 and 0.2% β-mercaptoethanol
# Columns and labels:
# [1] = molecular target: the molecule itself; experiment: AUC
# [2] = molecular target: the molecule itself; experiment: SEC; analytical Superdex 200, sample diluted in buffer with 2 mM ATP; 50 mM Tris pH 8.0, 200 mM NaCl, 0.2% β-mercaptoethanol; 3 µg/µl protein
# [3] = molecular target: the molecule itself; experiment: SEC; analytical Superdex 200, sample diluted in buffer with 2 mM adenosine; 50 mM Tris pH 8.0, 200 mM NaCl, 0.2% β-mercaptoethanol; 3 µg/µl protein
# [4] = molecular target: the molecule itself; experiment: SEC; analytical Superdex 200, no ligand; 50 mM Tris pH 8.0, 200 mM NaCl, 0.2% β-mercaptoethanol; 3 µg/µl protein; size by calibration proteins
protein,measurement,setting,value
B1,stoichiometry N,[1],4 and 3
B2,stoichiometry N,[2],2
same,stoichiometry N,[3],4
B3,stoichiometry N,[4],2
